From patent publication US20220276234A1, “POINT-OF-CARE IMMUNOASSAY FOR QUANTITATIVE SMALL ANALYTE DETECTION” (priority 2011, published 2022)

Assays:
[1] = compared with parent compound aripiprazole and dehydro aripiprazole; cited from earlier work
[2] = cited from earlier work
[3] = in vivo; cited from earlier work
B7-HTHC immune complex [4] = assay: Capillary electrophoresis test of candidate aptamers; format: binding; details: electropherogram peak shift, FIGS. 10A and 10B
Procedure: Following completion of aptamer selection, aptamers from the first, fifth, and tenth rounds of Structure Switching SELEX were sequenced using standard Next-Generation Sequencing (NGS) methods (AKESOgen). Of the sequences obtained by NGS, ten sequences per aptamer were tested using Capillary Electrophoresis (CE) and in a proprietary assay utilizing real-time PCR.
The candidate aptamers were initially tested using capillary electrophoresis. Of the 10 B7-HTHC aptamers, 3 were identified as candidate binders. […] This is likely due to the difference between the composition of the buffer required for capillary electrophoresis and the composition of the buffer used during the SELEX selection process.

B7-HTHC immunocomplex = assay: Sandwich type ELISA assay with selected derived B7-HTHC aptamers (5' biotin, HRP-streptavidin, TMB); format: binding
Procedure: The 11 aptamers were synthesized with a 5′ biotin such that they could be detected in ELISA-type assays. The aptamers were tested for their ability to bind to the target in two ways. In both assays, the antibody was coated onto the walls of a microtiter plate. In the first assay, HTHC was added to the antibody. After washing away unbound HTHC, the aptamers were added. In the second assay, the aptamers were added to the wells with HTHC simultaneously. In both assays, after washing away unbound aptamer, the plates were incubated with HRP-streptavidin, and then assayed for the amount of aptamer that remained bound to the immunocomplex using a colorimetric TMB assay.

B7-HTHC immune complex [5] = assay: Proprietary qPCR-based aptamer binding assay, immune complexes anchored to solid support; details: qPCR amplification, FIG. 11
Procedure: (§1) Binding selectivity was tested in varying salt conditions to determine optimal conditions for selection. Using a proprietary binding assay, the aptamers were allowed to incubate with immune complexes that were anchored to a solid support. After the incubation period, the immune complexes were washed, and the amount of aptamer binding was assayed via qPCR. Increased aptamer binding to the immune complex allowed faster detection of DNA amplification.
(§2) Of the aptamers tested, only one aptamer satisfied the following requirements: (1) binding to the correct immune complex, (2) no binding to the antibody alone, and (3) no binding to the antibody and the incorrect metabolite. FIG. 11 is a qPCR amplification curve showing the binding of Aptamer B7C4 with the immune complex B7-HTHC, the immune complex B7-THC, the B7 antibody alone, and a negative control. Theoretically, every additional cycle indicates 2 times fewer bound aptamer molecules.

B7-THC immune complex = assay: as above; details: qPCR amplification, FIG. 11
Procedure: as §1, §2

B7 antibody alone = assay: as above; details: qPCR amplification, FIG. 11
Procedure: as §1, §2

[6] = separate incubation: aptamers added after HTHC and washing, FIG. 16A
[7] = simultaneous incubation: aptamers added with HTHC, FIG. 16B

Question: With O=C(O)CCCOc1ccc2c(c1)NC(=O)CC2 [OPC-3373] as the molecule, how does the Water solubility [1] read?
Answer: much more water soluble

Question: For CN1CCCC1c1cccnc1 (stereo not shown) [nicotine], which “Time to reach the brain after inhalation” value ([2]; crosses the blood-brain barrier) is on record?
Answer: 10 to 20 s

Question: And the “Elimination half-life in the body” value ([2]; in vivo)?
Answer: approximately two

Question: What does the source list for CCCCCc1cc(O)c2c(c1)OC(C)(C)[C@@H]1CCC(C)=C[C@@H]21 [THC, Delta-9-tetrahydrocannabinol]?
Answer: Excreted in the feces [3]: More than 55%; Excreted in the urine [3]: approximately 20%

B1: B7C1: candidate DNA aptamer for antibody B7 and HTHC (nucleic acid)
DNA: CCTGTCAGTTGCTTACCGGCCCAGGTGTAGTAACTGCAGGGATTCTTAACGTAGCTACCGGGTGTAGTGTCCTTGCTCGT
modifications: DNA, backbone not given here; further chemistry not fully specified
notes: candidate DNA aptamer for antibody B7 and HTHC
Question: With B1 as the molecule, how does the “Binding to immune complex by capillary electrophoresis” value (B7-HTHC immune complex [4]) read?
Answer: peak shifts associated with the introduction of the immune complex

B2: Aptamer 493: selected derived B7-HTHC DNA aptamer (nucleic acid)
DNA: CCTGTCAGTTGCTTACCGGGCACGAGTACGAGACTGCAGGATTCTTCTACACTGCACCCCATGTAGTGTCCTTGCTC
modifications: DNA, backbone and methylation of C not given here
Question: With B2 as the molecule, how does the “Normalized absorption signal, aptamer binding to immunocomplex” value (“Normalized absorption signal” below) (B7-HTHC immunocomplex; [6]) read?
Answer: the opposite behavior compared to that of aptamer 444

Question: And the “Normalized absorption signal” value (B7-HTHC immunocomplex; [7])?
Answer: the opposite behavior compared to that of aptamer 444

B3: B7C4: parent DNA aptamer selective for the B7-HTHC immune complex (nucleic acid)
DNA: CCTGTCAGTTGCTTACCGGGCACGAGTACGAGACTGCAGGATTCTTCTACACTGCCCCCCATGTAGTGTCCTTGCTCGT
modifications: DNA, backbone not given here; further chemistry not fully specified
Question: Which “Aptamer binding to B7-HTHC immune complex” value (B7-HTHC immune complex [5]) does the source give for B3 here?
Answer: significant binding

Question: And the “Aptamer binding to B7-HTHC immune complex” value (B7-HTHC immune complex [5]; listed as B7C4-HTHC)?
Answer: high affinity

Question: And the “Aptamer binding to B7-THC immune complex” value (B7-THC immune complex)?
Answer: minimal binding

Question: And the “Aptamer binding to B7 antibody alone” value (B7 antibody alone)?
Answer: minimal binding

Question: And the “Aptamer binding to B7 antibody alone” value (B7 antibody alone; listed as B7C4-HTHC)?
Answer: residual binding affinity

B4: Aptamer 444: selected derived B7-HTHC DNA aptamer (nucleic acid)
DNA: CCTGTCAGTTGCTTACCGGGCACGAGTACGAGACTGCAGGATTCTTCTACACTGCGCCCCATGTAGTGTCCTTGCTCGT
modifications: DNA, backbone and methylation of C not given here
Question: Which “Normalized absorption signal” value (B7-HTHC immunocomplex; [6]) does the source give for B4 here?
Answer: high sensitivity

Question: What about the “Normalized absorption signal” value (B7-HTHC immunocomplex; [7]) of the same molecule?
Answer: reduced sensitivity

B5: Aptamer 368.2: selected derived B7-HTHC DNA aptamer (nucleic acid)
DNA: CCTGTCAGTTGCTTACCGGGCACGAGTACGAGACTGCAGGATTCTTCTACACTGCTCCCCATGTAGTGTCCTTGCTCGT
modifications: DNA, backbone and methylation of C not given here
Question: Which “Normalized absorption signal” value (B7-HTHC immunocomplex; [6]) does the source give for B5 here?
Answer: significant binding

Question: And the “Normalized absorption signal” value (B7-HTHC immunocomplex; [7])?
Answer: significant binding

B6: Aptamer 815: selected derived B7-HTHC DNA aptamer, family 2 (nucleic acid)
DNA: CCTGTCAGTTGCTTACCGGGCACGAGTACTAGACTGCAGGATTCTTCTACACTGCCCCCCATGTAGTGTCCTTGCTCGT
modifications: DNA, backbone and methylation of C not given here
Question: Which “Normalized absorption signal” value (B7-HTHC immunocomplex; [6]) does the source give for B6 here?
Answer: high binding

Question: And the “Normalized absorption signal” value (B7-HTHC immunocomplex; [7])?
Answer: lost this ability
